In article PMC11912008:

Target: Rabbit (Oryctolagus cuniculus) 80S ribosome (rabbit (endogenous in rabbit reticulocyte lysate)) (UniProt G1U0Q2)

Refolded WT human angiogenin (from UniProt P03950 25-147) (enzyme)
IC50 of inhibition of translation of nanoluciferase mRNA in RRL: 33 nM

Refolded angiogenin(K54E) (from UniProt P03950 25-147) (enzyme)
IC50 of inhibition of translation of nanoluciferase mRNA in RRL: 440 nM
